Earlier results as cited in patent publication US20040063697A1, “Compositions of cyclooxygenase-2 selective inhibitors and thrombolytic agents for the treatment or prevention of a vaso-occlusive event” (priority 2002, published 2004).

What was measured:
[1] = tested on: coronary intimal proliferation; details: oral administration, swine model of restenosis
[2] = tested on: vascular smooth muscle cells; details: in vitro
[3] = tested on: minimal lumen diameter; details: single dose intravenous pretreatment before coronary stenting, at 6 months
[4] = tested on: restenosis; details: orally administered, stent implanted pig arteries
[5] = for Elimination / Half-Life: in vivo
[6] = for Antigenicity: in vivo; for immune response: when administered to a human
[7] = target: plasminogen (Homo sapiens, UniProt P00747)
Sequence of plasminogen (P00747 20-810 limits assumed): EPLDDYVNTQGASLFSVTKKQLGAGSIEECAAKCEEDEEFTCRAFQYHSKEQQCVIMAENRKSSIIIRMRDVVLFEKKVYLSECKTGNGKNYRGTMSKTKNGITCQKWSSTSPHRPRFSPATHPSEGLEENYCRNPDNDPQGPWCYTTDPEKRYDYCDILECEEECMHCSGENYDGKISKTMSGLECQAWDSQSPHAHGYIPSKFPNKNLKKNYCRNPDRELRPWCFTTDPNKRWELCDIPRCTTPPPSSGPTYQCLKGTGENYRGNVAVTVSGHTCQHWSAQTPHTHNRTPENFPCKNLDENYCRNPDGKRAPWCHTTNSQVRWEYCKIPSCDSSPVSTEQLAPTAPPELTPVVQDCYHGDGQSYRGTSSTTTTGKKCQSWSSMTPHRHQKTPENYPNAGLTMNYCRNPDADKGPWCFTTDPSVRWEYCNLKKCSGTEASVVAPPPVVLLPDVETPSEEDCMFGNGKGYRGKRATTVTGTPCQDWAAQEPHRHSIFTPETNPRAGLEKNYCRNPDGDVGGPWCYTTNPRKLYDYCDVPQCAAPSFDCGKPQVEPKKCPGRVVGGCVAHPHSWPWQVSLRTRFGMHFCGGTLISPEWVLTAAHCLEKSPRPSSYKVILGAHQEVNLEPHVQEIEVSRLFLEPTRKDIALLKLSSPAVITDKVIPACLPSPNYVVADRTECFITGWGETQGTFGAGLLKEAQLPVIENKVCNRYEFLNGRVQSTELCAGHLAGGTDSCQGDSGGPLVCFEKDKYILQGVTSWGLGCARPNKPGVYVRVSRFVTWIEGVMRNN

Method of Plasminogen Activation [7]	Molecule	Elimination [5]	Half-Life [5]	Antigenicity [6]	immune response [6]	activation of fibrin-bound plasminogen versus circulating plasminogen [7]	other results
	CN(C)CCCO[C@@H]1[C@H]2OC(C)(C)O[C@H]2O[C@@H]1[C@H](O)CO.Cl [aniprilose hydrochloride]						coronary intimal proliferation [1]: did not prevent
	COc1cc(/C=C/C(=O)CC(=O)/C=C/c2ccc(O)c(OC)c2)ccc1O [curcumin]						proliferation of vascular smooth muscle cells [2]: reduced proliferation
	C[C@H]1C[C@@H]2[C@H]([C@@H](O)C[C@@]3(C)[C@H]2CC[C@]3(O)C(=O)CO)[C@@]2(C)C=CC(=O)C=C12 [methylpridnisolone]						change in minimal lumen diameter [3]: no effect
	COc1ccc(C=CC(=O)Nc2ccccc2C(=O)O)cc1OC [tranilast, N-(3,4-dimethoxycinnamoyl) anthranilic acid]						rate of restenosis [4]: lower rate of restenosis
Direct	Alteplase: biosynthetic, glycosylated form of human t-PA	Hepatic	4 to 8 min	No	no immune response is elicited		plasma clearance time and half-life ([5]; in words): rapid plasma clearance time and a short half-life
Direct	Urokinase	Hepatic	15 to 20 min	No	does not elicit an immune response	activates fibrin-bound plasminogen as well as circulating plasminogen	
	t-PA: tissue plasminogen activators					highly specific for the activation of fibrin-bound plasminogen over circulating plasminogen	

Molecule	Method of Plasminogen Activation [7]	Elimination [5]	Half-Life [5]	Antigenicity [6]	immune response [6]	activation of fibrin-bound plasminogen versus circulating plasminogen [7]	other results
Streptokinase: plasminogen activator produced by beta-hemolytic streptococci	Indirect	Hepatic	15 to 25 min	Yes	induce an immune response	activate fibrin-bound plasminogen as well as circulating plasminogen	
